Laboratory results reported in EP4729537A1, “B-LACTAMASE-INHIBITING ANTIBODY AND USE THEREOF IN THE TREATMENT AND/OR PREVENTION OF INFECTIONS CAUSED BY B-LACTAMASE-PRODUCING BACTERIA” (priority 2023, dated 2024).
Where “and” joins values, the source holds several entries; their conditions need not be identical. Equal values may be shown once.

Experiments:
[1] = tested on: O=C(Cc1cccs1)N[C@@H]1C(=O)N2C(C(=O)O)=C(/C=C/c3ccc([N+](=O)[O-])cc3[N+](=O)[O-])CS[C@H]12; assay: nitrocefin hydrolysis assay with E. coli BL21(DE3) cells expressing the β-lactamase in the periplasm; type: cell-based, Klebsiella pneumoniae; conditions: other: E. coli cells, control without antibody (controls of the B2 and B5 runs)
Protocol: (§1) An in vivo assay was conducted to test the inhibitory capacity of four β-lactamases from three resistant microorganisms: BlaMab from Mycobacterium abscessus, KPC-2 (UNIPROT Q9F663) and OXA-48 (UNIPROT Q6XEC0) from Klebsiella pneumoniae, and VIM-2 (UNIPROT B8QIQ9) from Pseudomonas aeruginosa. The assay utilized BL21(DE3) strain cells of Escherichia coli transformed with the expression vector pET26b(+) along with the gene sequence of each β-lactamase. Cells successfully transformed with the vector and insert were selected using a Kanamycin resistance gene (KanR) present in the vector. […] Additionally, the pET26b(+) vector has an IPTG-inducible promoter to activate the translation of the corresponding β-lactamase. The plasmid also includes a pelB export signal directing the β-lactamase to the periplasmic space of the bacteria for the inhibition assay with Ndis (nanobodies, single-domain antibodies).
(§2) This compound changes color from yellow to red when hydrolyzed by β-lactamase, which can be quantified by measuring absorbance at 490nm.

[2] = tested on: O=C(Cc1cccs1)N[C@@H]1C(=O)N2C(C(=O)O)=C(/C=C/c3ccc([N+](=O)[O-])cc3[N+](=O)[O-])CS[C@H]12; assay: as above; type: cell-based, Pseudomonas aeruginosa; conditions: other: E. coli cells, control without antibody (controls of the B2 and B5 runs)
Protocol: as §1, §2

Row | Substance | Km [1] [µM] | Km [2]
1 | OXA-48 (UNIPROT Q6XEC0) from Klebsiella pneumoniae (Klebsiella pneumoniae) | 4.48 | 
2 | VIM-2 (UNIPROT B8QIQ9) from Pseudomonas aeruginosa (Pseudomonas aeruginosa) |  | 4.35 µM and 6.75 µM
